{
  "source": "IntAct's records for PubMed 35512704",
  "parents": {"B1": {"name": "Mothers against decapentaplegic homolog 4 (Homo sapiens), Q13485 (parent)", "chain": "MDNMSITNTPTSNDACLSIVHSLMCHRQGGESETFAKRAIESLVKKLKEKKDELDSLITAITTNGAHPSKCVTIQRTLDGRLQVAGRKGFPHVIYARLWRWPDLHKNELKHVKYCQYAFDLKCDSVCVNPYHYERVVSPGIDLSGLTLQSNAPSSMMVKDEYVHDFEGQPSLSTEGHSIQTIQHPPSNRASTETYSTPALLAPSESNATSTANFPNIPVASTSQPASILGGSHSEGLLQIASGPQPGQQQNGFTGQPATYHHNSTTTWTGSRTAPYTPNLPHHQNGHLQHHPPMPPHPGHYWPVHNELAFQPPISNHPAPEYWCSIAYFEMDVQVGETFKVPSSCPIVTVDGYVDPSGGDRFCLGQLSNVHRTEAIERARLHIGKGVQLECKGEGDVWVRCLSDHAVFVQSYYLDREAGRAPGDAVHKIYPSAYIKVFDLRQCHRQMQQQAATAQAAAAAQAAAVAGNIPGPGSVGGIAPAISLSAAAGIGVDDLRRLCILRMSFVKGWGPDYPRQSIKETPCWIEIHLHRALQLLDEVLHTMPIADPQPLD", "partner": "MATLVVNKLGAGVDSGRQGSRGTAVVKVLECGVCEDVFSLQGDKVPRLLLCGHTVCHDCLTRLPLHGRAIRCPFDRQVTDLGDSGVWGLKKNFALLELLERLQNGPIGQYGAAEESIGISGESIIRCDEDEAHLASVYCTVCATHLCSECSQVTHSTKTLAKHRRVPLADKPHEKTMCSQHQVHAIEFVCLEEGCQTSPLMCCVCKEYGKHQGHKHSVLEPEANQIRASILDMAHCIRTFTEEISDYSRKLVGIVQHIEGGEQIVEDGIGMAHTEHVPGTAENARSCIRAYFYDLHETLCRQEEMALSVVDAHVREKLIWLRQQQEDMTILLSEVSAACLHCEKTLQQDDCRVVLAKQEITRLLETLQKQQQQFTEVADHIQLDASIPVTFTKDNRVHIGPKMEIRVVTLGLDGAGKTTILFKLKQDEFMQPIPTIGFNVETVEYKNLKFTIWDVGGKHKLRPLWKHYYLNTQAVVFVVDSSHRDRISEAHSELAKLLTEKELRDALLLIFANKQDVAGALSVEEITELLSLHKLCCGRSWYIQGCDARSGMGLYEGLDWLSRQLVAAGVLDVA"}, "B2": {"name": "Mothers against decapentaplegic homolog 4 (Homo sapiens), Q13485 (parent)", "chain": "B1 chain", "partner": "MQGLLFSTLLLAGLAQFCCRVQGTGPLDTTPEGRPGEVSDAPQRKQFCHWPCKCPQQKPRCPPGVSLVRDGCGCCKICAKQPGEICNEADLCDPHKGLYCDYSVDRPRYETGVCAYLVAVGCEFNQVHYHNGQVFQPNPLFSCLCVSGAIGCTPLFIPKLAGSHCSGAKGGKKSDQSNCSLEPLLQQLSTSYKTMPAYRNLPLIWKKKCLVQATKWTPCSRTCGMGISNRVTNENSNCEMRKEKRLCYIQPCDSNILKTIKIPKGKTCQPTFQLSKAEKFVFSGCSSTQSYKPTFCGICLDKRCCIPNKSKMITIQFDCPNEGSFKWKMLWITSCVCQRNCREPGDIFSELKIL"}, "B3": {"name": "Mothers against decapentaplegic homolog 4 (Homo sapiens), Q13485 (parent)", "chain": "B1 chain", "partner": "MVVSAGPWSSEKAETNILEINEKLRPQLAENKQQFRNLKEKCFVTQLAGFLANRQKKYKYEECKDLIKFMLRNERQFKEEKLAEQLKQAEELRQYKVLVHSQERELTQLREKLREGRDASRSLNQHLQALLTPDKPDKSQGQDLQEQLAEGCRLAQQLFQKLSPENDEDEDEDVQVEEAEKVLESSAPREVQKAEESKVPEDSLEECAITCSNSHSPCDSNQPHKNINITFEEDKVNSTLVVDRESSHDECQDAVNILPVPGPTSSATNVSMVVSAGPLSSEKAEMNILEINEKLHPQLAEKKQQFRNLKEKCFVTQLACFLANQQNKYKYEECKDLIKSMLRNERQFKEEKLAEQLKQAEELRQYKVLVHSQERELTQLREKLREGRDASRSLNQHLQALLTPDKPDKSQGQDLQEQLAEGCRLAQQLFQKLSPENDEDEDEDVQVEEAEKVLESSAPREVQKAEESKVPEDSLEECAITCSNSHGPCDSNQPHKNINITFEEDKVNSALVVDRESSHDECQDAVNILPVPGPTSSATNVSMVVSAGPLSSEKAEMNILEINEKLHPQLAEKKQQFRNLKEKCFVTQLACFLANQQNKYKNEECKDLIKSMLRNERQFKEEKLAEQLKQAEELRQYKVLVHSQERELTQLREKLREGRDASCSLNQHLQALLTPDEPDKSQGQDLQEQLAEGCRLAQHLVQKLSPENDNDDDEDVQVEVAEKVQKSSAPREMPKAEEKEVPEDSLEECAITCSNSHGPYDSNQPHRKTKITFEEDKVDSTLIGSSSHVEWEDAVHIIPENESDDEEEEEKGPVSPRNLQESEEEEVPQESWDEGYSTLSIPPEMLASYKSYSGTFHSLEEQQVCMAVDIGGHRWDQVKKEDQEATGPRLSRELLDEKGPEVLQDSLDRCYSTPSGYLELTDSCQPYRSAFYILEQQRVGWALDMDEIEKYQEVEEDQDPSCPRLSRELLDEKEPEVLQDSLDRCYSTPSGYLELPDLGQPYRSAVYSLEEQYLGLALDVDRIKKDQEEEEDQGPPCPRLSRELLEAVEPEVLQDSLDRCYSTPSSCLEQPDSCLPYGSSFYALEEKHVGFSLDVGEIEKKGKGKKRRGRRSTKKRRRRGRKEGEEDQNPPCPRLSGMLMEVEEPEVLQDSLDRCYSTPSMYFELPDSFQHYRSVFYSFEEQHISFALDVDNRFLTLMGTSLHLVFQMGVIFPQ"}, "B4": {"name": "Mothers against decapentaplegic homolog 4 (Homo sapiens), Q13485 (parent)", "chain": "B1 chain", "partner": "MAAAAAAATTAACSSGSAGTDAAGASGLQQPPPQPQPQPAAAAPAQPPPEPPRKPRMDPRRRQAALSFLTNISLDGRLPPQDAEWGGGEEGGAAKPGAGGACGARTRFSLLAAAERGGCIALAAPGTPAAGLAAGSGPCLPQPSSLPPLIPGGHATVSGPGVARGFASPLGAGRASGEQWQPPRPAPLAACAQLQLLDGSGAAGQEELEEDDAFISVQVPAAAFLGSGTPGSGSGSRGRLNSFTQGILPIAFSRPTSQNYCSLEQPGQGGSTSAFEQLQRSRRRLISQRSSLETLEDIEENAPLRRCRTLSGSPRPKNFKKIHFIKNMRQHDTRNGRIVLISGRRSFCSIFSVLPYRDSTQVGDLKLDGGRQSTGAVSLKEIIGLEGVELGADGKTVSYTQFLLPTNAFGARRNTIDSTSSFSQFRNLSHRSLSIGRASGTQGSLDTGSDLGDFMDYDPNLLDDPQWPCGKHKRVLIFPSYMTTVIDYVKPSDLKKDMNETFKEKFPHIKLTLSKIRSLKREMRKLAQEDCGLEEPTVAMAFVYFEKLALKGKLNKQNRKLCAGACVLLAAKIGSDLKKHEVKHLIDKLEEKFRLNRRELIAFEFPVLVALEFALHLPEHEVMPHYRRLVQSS"}, "B5": {"name": "Mothers against decapentaplegic homolog 4 (Homo sapiens), Q13485 (parent)", "chain": "B1 chain", "partner": "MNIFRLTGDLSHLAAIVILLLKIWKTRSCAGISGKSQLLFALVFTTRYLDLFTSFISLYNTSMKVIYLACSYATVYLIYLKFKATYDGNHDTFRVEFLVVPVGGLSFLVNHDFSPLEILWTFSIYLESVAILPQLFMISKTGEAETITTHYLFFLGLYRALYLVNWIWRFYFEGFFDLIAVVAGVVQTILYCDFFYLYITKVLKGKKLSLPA"}},
  "data": [
    {"variants_of": "B1", "conditions": "with tri23_human TRIM23, P36406", "values": [
      {"variant": "G386D", "effect of a mutation on the interaction": "with no effect"}
    ]},
    {"variants_of": "B1", "conditions": "with tri23_human TRIM23, P36406", "remark": "another data set of the same source", "values": [
      {"variant": "R361H", "effect of a mutation on the interaction": "with no effect"}
    ]},
    {"variants_of": "B1", "conditions": "with tri23_human TRIM23, P36406", "remark": "another data set of the same source", "values": [
      {"variant": "R361C", "effect of a mutation on the interaction": "with no effect"}
    ]},
    {"variants_of": "B1", "conditions": "with tri23_human TRIM23, P36406", "remark": "another data set of the same source", "values": [
      {"variant": "D351H", "effect of a mutation on the interaction": "with no effect"}
    ]},
    {"variants_of": "B2", "conditions": "with ccn6_human CCN6, O95389", "values": [
      {"variant": "D351H", "effect of a mutation on the interaction": "with no effect"}
    ]},
    {"variants_of": "B2", "conditions": "with ccn6_human CCN6, O95389", "remark": "another data set of the same source", "values": [
      {"variant": "R361C", "effect of a mutation on the interaction": "with no effect"}
    ]},
    {"variants_of": "B2", "conditions": "with ccn6_human CCN6, O95389", "remark": "another data set of the same source", "values": [
      {"variant": "R361H", "effect of a mutation on the interaction": "with no effect"}
    ]},
    {"variants_of": "B2", "conditions": "with ccn6_human CCN6, O95389", "remark": "another data set of the same source", "values": [
      {"variant": "G386D", "effect of a mutation on the interaction": "with no effect"}
    ]},
    {"variants_of": "B3", "conditions": "with nbpf1_human NBPF1, Q3BBV0", "values": [
      {"variant": "G386D", "effect of a mutation on the interaction": "with no effect"}
    ]},
    {"variants_of": "B4", "conditions": "with cabl1_human CABLES1, Q8TDN4", "values": [
      {"variant": "G386D", "effect of a mutation on the interaction": "with no effect"}
    ]},
    {"variants_of": "B5", "conditions": "with erd22_human KDELR2, P33947", "values": [
      {"variant": "R361C", "effect of a mutation on the interaction": "with no effect"}
    ]}
  ]
}
